The source of these data is patent US20170306033A1 (Amgen, published 2017).

Residue numbers refer to the chain shown, from its start.

T1: human PAC1 receptor (human, UniProt P41586 21-468)
T1 sequence: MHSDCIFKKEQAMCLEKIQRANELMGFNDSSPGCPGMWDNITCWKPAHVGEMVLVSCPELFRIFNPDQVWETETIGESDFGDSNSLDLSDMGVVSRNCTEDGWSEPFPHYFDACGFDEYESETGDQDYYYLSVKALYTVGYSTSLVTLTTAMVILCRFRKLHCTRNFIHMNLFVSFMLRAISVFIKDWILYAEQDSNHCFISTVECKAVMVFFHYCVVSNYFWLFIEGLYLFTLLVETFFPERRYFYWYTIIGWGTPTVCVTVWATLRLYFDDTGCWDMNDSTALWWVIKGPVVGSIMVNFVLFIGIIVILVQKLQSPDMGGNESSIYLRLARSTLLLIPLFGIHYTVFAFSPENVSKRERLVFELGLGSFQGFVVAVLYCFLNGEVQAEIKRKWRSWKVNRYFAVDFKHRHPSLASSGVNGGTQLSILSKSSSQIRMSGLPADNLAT

B1: iPS:326628 (bispecific antibody, human IgG2, kappa, lambda)
light 1: DIQLTQSPSFLSASVGDRVTITCRASQSIGRSLHWYQQKPGKAPKLLIKYASQSLSGVPSRFSGSGSGTEFTLTISSLQPEDFATYYCHQSSRLPFTFGPGTKVDIKRTVAAPSVFIFPPSDEQLKSGTASVVCLLNNFYPREAKVQWKVDNALQSGNSQESVTEQDSKDSTYSLESTLTLSKADYEKHKVYACEVTHQGLSSPVTKSFNRGEC
heavy 1: QVQLVESGAEVVKPGASVKVSCKASGFTFSRFAMHWVRQAPGQGLEWMGVISYDGGNKYYAESVKGRVTMTRDTSTSTLYMELSSLRSEDTAVYYCARGYDVLTGYPDYWGQGTLVTVSSASTKGPSVFPLAPCSRSTSESTAALGCLVKDYFPEPVTVSWNSGALTSGVHTFPAVLQSSGLYSLKSVVTVPSSNFGTQTYTCNVDHKPSNTKVDKTVERKCCVECPPCPAPPVAGPSVFLFPPKPKDTLMISRTPEVTCVVVDVSHEDPEVQFNWYVDGVEVHNAKTKPREEQFNSTFRVVSVLTVVHQDWLNGKEYKCKVSNKGLPAPIEKTISKTKGQPREPQVYTLPPSREEMTKNQVSLTCLVDGFYPSDIAVEWESNGQPENNYDTTPPMLDSDGSFFLYSDLTVDKSRWQQGNVFSCSVMHEALHNHYTQKSLSLSPGK
light 2: not shown
heavy 2: not shown
B2: iPS:327278 (bispecific antibody, human IgG1, kappa, lambda, N297G)
light 1: B1 light 1
heavy 1: not shown
light 2: not shown
heavy 2: not shown
B3: iPS:327282 (bispecific antibody, human IgG1, kappa, lambda, N297G)
light 1: B1 light 1
heavy 1: not shown
light 2: QSVLTQPPSVSAAPGQKVTISCSGSSSNIGNNYVSWYQQLPGTAPKLLIYDNNKRPSGIPDRFSGSKSGTSTTLGITGLQTGDEADYYCGTWDSRLSAVVFGGGTKLTVLGQPKANPTVTLFPPSSEELQANKATLVCLISDFYPGAVTVAWKADGSPVKAGVETTKPSKQSNNKYAAKSYLSLTPEQWKSHRSYSCQVTHEGSTVEKTVAPTECS
heavy 2: QVQLVESGGGVVQPGRSLRLSCAASGFTFSSFGMHWVRQAPGKGLEWVAVISFDGSIKYSVDSVKGRFTISRDNSKNTLFLQMNSLRAEDTAVYYCARDRLNYYDSSGYYHYKYYGMAVWGQGTTVTVSSASTKGPSVFPLAPSSKSTSGGTAALGCLVKDYFPEPVTVSWNSGALTSGVHTFPAVLQSSGLYSLESVVTVPSSSLGTQTYICNVNHKPSNTKVDKKVEPKSCDKTHTCPPCPAPELLGGPSVFLFPPKPKDTLMISRTPEVTCVVVDVSHEDPEVKFNWYVDGVEVHNAKTKPCEEQYGSTYRCVSVLTVLHQDWLNGKEYKCKVSNKALPAPIEKTISKAKGQPREPQVYTLPPSRKEMTKNQVSLTCLVKGFYPSDIAVEWESNGQPENNYKTTPPVLKSDGSFFLYSKLTVDKSRWQQGNVFSCSVMHEALHNHYTQKSLSLSPGK
B4: iPS:327283 (bispecific antibody, human IgG1, kappa, lambda, N297G)
light 1: EIVLTQSPATLSLSPGERATLSCRASQSVGRSLHWYQQKPGQAPRLLIKYASQSLSGIPARFSGSGSGTDFTLTISSLEPEDFAVYYCHQSSRLPFTFGPGTKVDIKRTVAAPSVFIFPPSDEQLKSGTASVVCLLNNFYPREAKVQWKVDNALQSGNSQESVTEQDSKDSTYSLESTLTLSKADYEKHKVYACEVTHQGLSSPVTKSFNRGEC
heavy 1: not shown
light 2: B3 light 2
heavy 2: B3 heavy 2
B5: iPS:327284 (bispecific antibody, human IgG1, kappa, lambda, N297G)
light 1: DIQMTQSPSSLSASVGDRITITCRASQSISRYLNWYQQKPGKAPKLLIYAASSLQSGIPSRFSGSGSGTDFTLTINSLQPEDFATYFCQQSYSPPFTFGEGTKVDIKRTVAAPSVFIFPPSDEQLKSGTASVVCLLNNFYPREAKVQWKVDNALQSGNSQESVTEQDSKDSTYSLESTLTLSKADYEKHKVYACEVTHQGLSSPVTKSFNRGEC
heavy 1: not shown
light 2: B3 light 2 with G103K
heavy 2: B3 heavy 2 with G44E
B6: iPS:327279 (bispecific antibody, human IgG1, kappa, lambda, N297G)
light 1: B4 light 1
heavy 1: not shown
light 2: not shown
heavy 2: not shown
B7: iPS:327285 (bispecific antibody, human IgG1, kappa, lambda, N297G)
light 1: not shown
heavy 1: not shown
light 2: B3 light 2 with G103K
heavy 2: B3 heavy 2 with G44E
B8: iPS:328000 (bispecific antibody, human IgG2, kappa, lambda)
light 1: not shown
heavy 1: QVQLQESGPGLVKPSQTLSLTCTVSGGSISSGGYYWSWIRQHPGKGLEWIGYIYYSGNTYYNPSLKSRVTISGDTSKNQFSLKLRSVTAADTAVYYCTRGGAARGMDVWGQGTTVTVSSASTKGPSVFPLAPCSRSTSESTAALGCLVKDYFPEPVTVSWNSGALTSGVHTFPAVLQSSGLYSLKSVVTVPSSNFGTQTYTCNVDHKPSNTKVDKTVERKCCVECPPCPAPPVAGPSVFLFPPKPKDTLMISRTPEVTCVVVDVSHEDPEVQFNWYVDGVEVHNAKTKPREEQFNSTFRVVSVLTVVHQDWLNGKEYKCKVSNKGLPAPIEKTISKTKGQPREPQVYTLPPSREEMTKNQVSLTCLVDGFYPSDIAVEWESNGQPENNYDTTPPMLDSDGSFFLYSDLTVDKSRWQQGNVFSCSVMHEALHNHYTQKSLSLSPGK
light 2: B3 light 2
heavy 2: QVQLVESGGGVVQPGRSLRLSCAASGFTFSSFGMHWVRQAPGKGLEWVAVISFDGSIKYSVDSVKGRFTISRDNSKNTLFLQMNSLRAEDTAVYYCARDRLNYYDSSGYYHYKYYGMAVWGQGTTVTVSSASTKGPSVFPLAPCSRSTSESTAALGCLVKDYFPEPVTVSWNSGALTSGVHTFPAVLQSSGLYSLESVVTVPSSNFGTQTYTCNVDHKPSNTKVDKTVERKCCVECPPCPAPPVAGPSVFLFPPKPKDTLMISRTPEVTCVVVDVSHEDPEVQFNWYVDGVEVHNAKTKPREEQFNSTFRVVSVLTVVHQDWLNGKEYKCKVSNKGLPAPIEKTISKTKGQPREPQVYTLPPSRKKMTKNQVSLTCLVKGFYPSDIAVEWESNGQPENNYKTTPPMLKSDGSFFLYSKLTVDKSRWQQGNVFSCSVMHEALHNHYTQKSLSLSPGK
B9: iPS:327280 (bispecific antibody, human IgG1, kappa, lambda, N297G)
light 1: not shown
heavy 1: not shown
light 2: B3 light 2
heavy 2: B3 heavy 2
B10: iPS:326417 (bispecific antibody, human IgG1, kappa, N297G)
light 1: not shown
heavy 1: not shown
light 2: EIVLTQSPGTLSLSPGERATLSCRASQSVSSGYLTWYQQKPGQAPRLLIYGASSRATGIPDRFSGSGSGTDFTLTISRLEPEDFAVYYCQQYGNSLSRFGQGTKLEIKRTVAAPSVFIFPPSDEQLKSGTASVVCLLNNFYPREAKVQWKVDNALQSGNSQESVTEQDSKDSTYSLKSTLTLSKADYEKHKVYACEVTHQGLSSPVTKSFNRGEC
heavy 2: not shown

One assay deals with human CGRP receptor (human, UniProt Q16602 23-461; O60894 27-148). The assay is described as follows: cell-based or functional assay.
Chain of human CGRP receptor (Q16602 23-461 limits assumed, chain 1 of 2): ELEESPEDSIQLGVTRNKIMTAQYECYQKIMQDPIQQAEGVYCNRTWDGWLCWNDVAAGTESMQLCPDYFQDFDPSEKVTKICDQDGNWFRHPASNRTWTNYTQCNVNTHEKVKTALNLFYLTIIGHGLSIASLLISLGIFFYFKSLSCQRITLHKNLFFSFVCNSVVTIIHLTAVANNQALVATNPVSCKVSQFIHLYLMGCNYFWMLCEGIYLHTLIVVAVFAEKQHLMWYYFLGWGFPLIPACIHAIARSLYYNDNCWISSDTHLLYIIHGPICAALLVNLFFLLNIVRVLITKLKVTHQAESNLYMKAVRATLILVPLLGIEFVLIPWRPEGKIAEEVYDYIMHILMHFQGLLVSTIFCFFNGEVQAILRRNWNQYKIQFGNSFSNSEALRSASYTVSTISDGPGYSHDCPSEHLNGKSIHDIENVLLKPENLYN
Chain of human CGRP receptor (O60894 27-148 limits assumed, chain 2 of 2): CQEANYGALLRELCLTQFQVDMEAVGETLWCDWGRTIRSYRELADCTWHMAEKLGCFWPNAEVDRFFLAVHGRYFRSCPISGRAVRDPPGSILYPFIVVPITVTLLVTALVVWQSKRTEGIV
On to B1, for which the “% inhibition of human CGRPR” value worked out at 84%.

As for B2, the “% inhibition of human CGRPR” value was found to be 85%.

For the molecule B3, the “% inhibition of human CGRPR” value was 87%.

Regarding B4, the “% inhibition of human CGRPR” value was determined as 85%.

In the case of B5, the “% inhibition of human CGRPR” value worked out at 77%.

Take B6: the “% inhibition of human CGRPR” value came out at 73%.

Turning to B7, the “% inhibition of human CGRPR” value amounted to 84%.

For the molecule B8, the “% inhibition of human CGRPR” value is 75%.

Consider B9, for which the “% inhibition of human CGRPR” value is 80%.

As to B10, the “% inhibition of human CGRPR” value was 66%.

Another assay deals with T1, human PAC1 receptor. The assay is described as follows: cell-based or functional assay.
For B1, the “% inhibition of human PAC1” value was 61%.

With B2, the “% inhibition of human PAC1” value stood at 47%.

Consider B3, for which the “% inhibition of human PAC1” value is 58%.

For B4, the “% inhibition of human PAC1” value is 99%.

Take B5: the “% inhibition of human PAC1” value stood at 25%.

Regarding B6, the “% inhibition of human PAC1” value is 95%.

On to B7, for which the “% inhibition of human PAC1” value stood at 9%.

For the molecule B8, the “% inhibition of human PAC1” value worked out at 63%.

Regarding B9, the “% inhibition of human PAC1” value was 83%.

As to B10, the “% inhibition of human PAC1” value came to 48%.
